The target of this data set is RNA polymerase I (13-subunit complex) (Homo sapiens (HEK293T), UniProt O95602;Q9H9Y6;O15160;P0DPB6;Q9P1U0;Q3B726;Q9GZS1;O15446;P19388;P61218;P52434;P53 …). The experiment in a line: cryo-EM structure; open complex, inactive state, 3.3 A; RRN3 in sample but not bound in this class; downstream duplex traced, bubble not stably bound at active site; EM buffer: 15 mM HEPES pH 7.5, 80 mM (NH4)2SO4, 5 mM MgCl2, 10 mM DTT; scaffold annealed in 20 mM HEPES pH 7.5, 12 mM MgCl2, 100 mM NaCl, 10 mM DTT (1x, from printed 2x); complex incubation temperature not given. The settings on record: protein: native; copies: 1;1;1;1;1;1;1;1;1;1;1;1;1; 43-bp duplex with 12-nt mismatch bubble, blunt.

Results on one molecule are retold here after paper PMC8660638.

B1: Pol I OC scaffold (template/nontemplate DNA, no RNA) (dsDNA)
DNA 1: GTACTGAATTAGACAATGCTCTGTGGCTCTAGTACCATGAGCG
DNA 2: CGCTCATGGTACTAGGCTTCGGAGAAGTTGTCTAATTCAGTAC
As to B1, the binding result is listed as “binds”.
